Starred links: 1 amine or outer side, 2 acyl side, 3 side chain; linkers in the order of their positions; H or OH if unused. Non-standard residues stand in square brackets, D forms with d. rCha = cyclohexylalanine with ψ(CH2NH) reduced amide bond, C1CCC(C[C@@H](C[*:2])N[*:1])CC1; rhArg = homoarginine with ψ(CH2NH) reduced amide bond, N=C(N)NCCCC[C@@H](C[*:2])N[*:1]; rHis = histidine with ψ(CH2NH) reduced amide bond, c1nc(C[C@@H](C[*:2])N[*:1])c[nH]1; rLys = lysine with ψ(CH2NH) reduced amide bond, C(CC[C@@H](C[*:2])N[*:1])CN[*:3]; DrSer = D-serine with ψ(CH2NH) reduced amide bond, C(O[*:3])[C@H](C[*:2])N[*:1]; rSer = serine with ψ(CH2NH) reduced amide bond, C(O[*:3])[C@@H](C[*:2])N[*:1]; dBip = N[C@H](Cc1ccc(-c2ccccc2)cc1)C(=O)O; Oic = O=C(O)[C@@H]1C[C@@H]2CCCC[C@@H]2N1; Phe(4-Cl) = N[C@@H](Cc1ccc(Cl)cc1)C(=O)O; Phe(4-I) = N[C@@H](Cc1ccc(I)cc1)C(=O)O; 2Nal = N[C@@H](Cc1ccc2ccccc2c1)C(=O)O; hArg = N=C(N)NCCCC[C@H](N)C(=O)O; Cha = N[C@@H](CC1CCCCC1)C(=O)O; NMeL = CN[C@@H](CC(C)C)C(=O)O; αMeL = CC(C)C[C@](C)(N)C(=O)O; αMeOrn = C[C@](N)(CCCN)C(=O)O; αMeP = C[C@@]1(C(=O)O)CCCN1; αMeS = C[C@](N)(CO)C(=O)O; Nle = CCCC[C@H](N)C(=O)O; Orn = NCCC[C@H](N)C(=O)O
Assays:
[1] = molecular target: T1, human APJ receptor (human, UniProt P35414 1-380); assay: cell-based or functional assay
T1 sequence (looked up): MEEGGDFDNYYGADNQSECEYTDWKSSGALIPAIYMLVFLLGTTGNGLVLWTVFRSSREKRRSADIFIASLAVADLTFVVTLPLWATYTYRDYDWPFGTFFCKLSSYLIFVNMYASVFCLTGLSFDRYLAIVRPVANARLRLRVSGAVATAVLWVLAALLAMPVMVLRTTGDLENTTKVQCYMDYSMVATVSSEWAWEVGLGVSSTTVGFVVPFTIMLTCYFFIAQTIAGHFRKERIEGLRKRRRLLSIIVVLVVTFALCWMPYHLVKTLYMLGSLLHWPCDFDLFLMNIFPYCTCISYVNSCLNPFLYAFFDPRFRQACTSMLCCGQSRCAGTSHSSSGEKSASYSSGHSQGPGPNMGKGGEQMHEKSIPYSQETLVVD

[2] = molecular target: T2, rat APJ receptor (rat, UniProt Q9JHG3 1-377); assay: cell-based or functional assay
T2 sequence (looked up): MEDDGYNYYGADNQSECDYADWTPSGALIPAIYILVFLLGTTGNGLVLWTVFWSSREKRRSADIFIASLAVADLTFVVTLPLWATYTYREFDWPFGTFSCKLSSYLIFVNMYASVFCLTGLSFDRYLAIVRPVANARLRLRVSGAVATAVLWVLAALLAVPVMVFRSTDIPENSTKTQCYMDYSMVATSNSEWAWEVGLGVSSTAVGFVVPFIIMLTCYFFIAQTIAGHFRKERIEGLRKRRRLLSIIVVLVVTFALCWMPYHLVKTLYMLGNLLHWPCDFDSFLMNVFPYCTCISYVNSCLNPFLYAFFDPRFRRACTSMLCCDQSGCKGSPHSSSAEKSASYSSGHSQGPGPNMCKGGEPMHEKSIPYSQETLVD

Binder | EC50 Human APJ Receptor [1] [nM] | EC50 Rat APJ Receptor [2] [nM]
Ac-[Orn]F[hArg][hArg]QRP[hArg][Cha]SHKGP[Nle][2Nal]-OH (SMILES CCCC[C@H](NC(=O)[C@@H]1CCCN1C(=O)CNC(=O)[C@H](CCCCN)NC(=O)[C@H](Cc1c[nH]cn1)NC(=O)[C@H](CO)NC(=O)[C@H](CC1CCCCC1)NC(=O)[C@H](CCCCNC(=N)N)NC(=O)[C@@H]1CCCN1C(=O)[C@H](CCCNC(=N)N)NC(=O)[C@H](CCC(N)=O)NC(=O)[C@H](CCCCNC(=N)N)NC(=O)[C@H](CCCCNC(=N)N)NC(=O)[C@H](Cc1ccccc1)NC(=O)[C@H](CCCN)NC(C)=O)C(=O)N[C@@H](Cc1ccc2ccccc2c1)C(=O)O) [apelin polypeptide SEQ ID NO: 49] | 0.159 | 0.291
Ac-[Orn]F[hArg][hArg]QRP[hArg][Cha]SHKGP[Nle][Phe(4-Cl)]-OH (SMILES CCCC[C@H](NC(=O)[C@@H]1CCCN1C(=O)CNC(=O)[C@H](CCCCN)NC(=O)[C@H](Cc1c[nH]cn1)NC(=O)[C@H](CO)NC(=O)[C@H](CC1CCCCC1)NC(=O)[C@H](CCCCNC(=N)N)NC(=O)[C@@H]1CCCN1C(=O)[C@H](CCCNC(=N)N)NC(=O)[C@H](CCC(N)=O)NC(=O)[C@H](CCCCNC(=N)N)NC(=O)[C@H](CCCCNC(=N)N)NC(=O)[C@H](Cc1ccccc1)NC(=O)[C@H](CCCN)NC(C)=O)C(=O)N[C@@H](Cc1ccc(Cl)cc1)C(=O)O) [apelin polypeptide SEQ ID NO: 48] | 0.287 | 0.486
Ac-RQRP[hArg][NMeL]SHKG[Oic][Phe(4-I)]P[dBip]-OH [apelin polypeptide SEQ ID NO: 51] | 0.37 | 1.26
Ac-[Orn]F[hArg][hArg]Q[hArg]P[hArg][Cha]SH[rLys]G[Oic][Nle]P[Phe(4-Cl)]-OH (also: reduced amide bond (CH2NH) at residue 12) [apelin polypeptide SEQ ID NO: 41] | 0.151 | 0.817
Ac-[Orn]F[hArg][hArg]Q[hArg]P[hArg][Cha][rSer]HKG[Oic][Nle]P[Phe(4-Cl)]-OH (also: reduced amide bond at Ser10 (rSer)) [apelin polypeptide SEQ ID NO: 43] | 0.393 | 1.83
Ac-[Orn]F[hArg][hArg]Q[hArg]P[hArg][Cha]SHKG[Oic][Nle][αMeP][Phe(4-Cl)]-OH [apelin polypeptide SEQ ID NO: 37] | 0.0672 | 0.136
Ac-[Orn]F[hArg][hArg]Q[rhArg]P[hArg][Cha]SHKG[Oic][Nle]P[Phe(4-Cl)]-OH (also: reduced amide bond (CH2NH) at residue 6) [apelin polypeptide SEQ ID NO: 38] | 0.0869 | 1.3
Ac-[Orn]F[hArg][hArg]Q[hArg]P[rhArg][Cha]SHKG[Oic][Nle]P[Phe(4-Cl)]-OH (also: reduced amide bond (CH2NH) at residue 8) [apelin polypeptide SEQ ID NO: 39] | 0.253 | 0.323
Ac-[dR]Q[hArg]P[dR][NMeL]SHKG[Oic][Phe(4-I)]P[dBip]-OH [apelin polypeptide SEQ ID NO: 50] | 1.43 | 1.68
Ac-[Orn]F[hArg][hArg]Q[hArg]P[hArg][Cha]SH[αMeOrn]G[Oic][Nle]P[Phe(4-Cl)]-OH [apelin polypeptide SEQ ID NO: 36] | 0.355 | 1.94
Ac-[Orn]F[hArg][hArg]QRP[hArg][NMeL]SHKG[Oic][Phe(4-I)]P[dBip]-OH (SMILES CC(=O)N[C@@H](CCCN)C(=O)N[C@@H](Cc1ccccc1)C(=O)N[C@@H](CCCCNC(=N)N)C(=O)N[C@@H](CCCCNC(=N)N)C(=O)N[C@@H](CCC(N)=O)C(=O)N[C@@H](CCCNC(=N)N)C(=O)N1CCC[C@H]1C(=O)N[C@@H](CCCCNC(=N)N)C(=O)N(C)[C@@H](CC(C)C)C(=O)N[C@@H](CO)C(=O)N[C@@H](Cc1c[nH]cn1)C(=O)N[C@@H](CCCCN)C(=O)NCC(=O)N1[C@H](C(=O)N[C@@H](Cc2ccc(I)cc2)C(=O)N2CCC[C@H]2C(=O)N[C@H](Cc2ccc(-c3ccccc3)cc2)C(=O)O)C[C@@H]2CCCC[C@@H]21) [apelin polypeptide SEQ ID NO: 47] | 0.416 | 0.63
Ac-[Orn]F[hArg][hArg]Q[hArg]P[hArg][αMeL]SHKG[Oic][Nle]P[Phe(4-Cl)]-OH (SMILES CCCC[C@H](NC(=O)[C@@H]1C[C@@H]2CCCC[C@@H]2N1C(=O)CNC(=O)[C@H](CCCCN)NC(=O)[C@H](Cc1c[nH]cn1)NC(=O)[C@H](CO)NC(=O)[C@](C)(CC(C)C)NC(=O)[C@H](CCCCNC(=N)N)NC(=O)[C@@H]1CCCN1C(=O)[C@H](CCCCNC(=N)N)NC(=O)[C@H](CCC(N)=O)NC(=O)[C@H](CCCCNC(=N)N)NC(=O)[C@H](CCCCNC(=N)N)NC(=O)[C@H](Cc1ccccc1)NC(=O)[C@H](CCCN)NC(C)=O)C(=O)N1CCC[C@H]1C(=O)N[C@@H](Cc1ccc(Cl)cc1)C(=O)O) [apelin polypeptide SEQ ID NO: 34] | 0.0519 | 0.193
Ac-[Orn]F[hArg][hArg]Q[hArg]P[hArg][Cha]S[rHis]KG[Oic][Nle]P[Phe(4-Cl)]-OH (also: reduced amide bond (CH2NH) at residue 11) [apelin polypeptide SEQ ID NO: 40] | 0.234 | 1.45
QRPRLSHKGXFPX ({Acetyl-NH}Q[hArg]Pr[NMeLeu]SHKG[Oic][pI-Phe]P[D-Bip]{COOH}) [apelin polypeptide SEQ ID NO: 53] | 5.18 | 5.98
Ac-[Orn]F[hArg][hArg]QRP[hArg][Cha]SHKGP[Phe(4-I)]P[dBip]-OH (SMILES CC(=O)N[C@@H](CCCN)C(=O)N[C@@H](Cc1ccccc1)C(=O)N[C@@H](CCCCNC(=N)N)C(=O)N[C@@H](CCCCNC(=N)N)C(=O)N[C@@H](CCC(N)=O)C(=O)N[C@@H](CCCNC(=N)N)C(=O)N1CCC[C@H]1C(=O)N[C@@H](CCCCNC(=N)N)C(=O)N[C@@H](CC1CCCCC1)C(=O)N[C@@H](CO)C(=O)N[C@@H](Cc1c[nH]cn1)C(=O)N[C@@H](CCCCN)C(=O)NCC(=O)N1CCC[C@H]1C(=O)N[C@@H](Cc1ccc(I)cc1)C(=O)N1CCC[C@H]1C(=O)N[C@H](Cc1ccc(-c2ccccc2)cc1)C(=O)O) [apelin polypeptide SEQ ID NO: 46] | 0.389 | 1.04
Ac-[dR]QRP[hArg][NMeL]SHKG[Oic][Phe(4-I)]P[dBip]-OH (SMILES CC(=O)N[C@H](CCCNC(=N)N)C(=O)N[C@@H](CCC(N)=O)C(=O)N[C@@H](CCCNC(=N)N)C(=O)N1CCC[C@H]1C(=O)N[C@@H](CCCCNC(=N)N)C(=O)N(C)[C@@H](CC(C)C)C(=O)N[C@@H](CO)C(=O)N[C@@H](Cc1c[nH]cn1)C(=O)N[C@@H](CCCCN)C(=O)NCC(=O)N1[C@H](C(=O)N[C@@H](Cc2ccc(I)cc2)C(=O)N2CCC[C@H]2C(=O)N[C@H](Cc2ccc(-c3ccccc3)cc2)C(=O)O)C[C@@H]2CCCC[C@@H]21) [apelin polypeptide SEQ ID NO: 52] | 0.623 | 1.14
Ac-[Orn]F[hArg][hArg]Q[hArg]P[hArg][rCha]SHKG[Oic][Nle]P[Phe(4-Cl)]-OH (also: reduced amide bond (CH2NH) at residue 9) [apelin polypeptide SEQ ID NO: 42] | 0.0449 | 0.247
Ac-[Orn]F[hArg][hArg]Q[hArg]P[hArg][Cha][αMeS]HKG[Oic][Nle]P[Phe(4-Cl)]-OH [apelin polypeptide SEQ ID NO: 35] | 0.0861 | 0.185
Ac-[Orn]F[hArg][hArg]Q[hArg]P[hArg][Cha][DrSer]HKG[Oic][Nle]P[Phe(4-Cl)]-OH (also: reduced amide bond at D-Ser10 (DrSer)) [apelin polypeptide SEQ ID NO: 44] | 0.997 | 3.79
